From US20240343781A1 (published 2024)

Biological target: SARS-COV-2 D614G spike trimer (SARS-CoV-2, UniProt P0DTC2 14-1208)
Test: SPR

Binder | Kd
engineered monoclonal antibody 12-16 (antibody, V domains shown) VH: QVQLVESGGGVVQPGRSLRLSCAASGFTFSNYGMHWVRQAPGKGLEWVAIISFDGSNRYYADSVKGRFTISRDNSKNTLYLQMDSLRAEDTAVYYCAKDLSFYYDISTGYYPQSYNSGTDVWGQGTTVTVSS VL: not shown | 1.6 nM
engineered monoclonal antibody 12-19 (antibody, V domains shown) VH: QVQLVESGGGVVQPGRSLRLSCEASGFTFNTYDMHWARQAPGKGLEWVAVIWYDGSNKFYADSVKGRFTISRDNSKNTLYLQMNSLRAEDTAVYYCARDRTPVYDILTGYYWPPPRVDGMDVWGQGTTVTVSS VL: DNVMTQTPFSLSVTPGQPASISCKSSQSLLHSDGKTYLYWYLQKPGQSPQLLIYEVSNRFSGVPERFSGSGSGTDFTLKISRVEAEDVGVYYCMQSIQLPFTFGQGTKLEIK | 9.35 nM
